The results in this text go back to article PMC2199314 (The Journal of Cell Biology, 2001).

For orientation: Kd means the concentration at which binding is half-saturated.

For this test, the target named is taxol-stabilized bovine brain microtubules (bovine, UniProt Q6B856 1-445).

B1: Escherichia coli–purified Dam1p (natural protein, S. cerevisiae, UniProt P53267 1-343, looked up)
chain: MSEDKAKLGTTRSATEYRLSIGSAPTSRRSSMGESSSLMKFADQEGLTSSVGEYNENTIQQLLLPKIRELSDSIITLDSNFTRLNFIHESLADLNESLGSLLYGIMSNSWCVEFSQAPHDIQDDLIAIKQLKSLEDEKNNLVMELSNMERGIKRKKDEQGENDLAKASQNKQFNQPLFPSSQVRKYRSYDNRDKRKPSKIGNNLQVENEEDYEDDTSSEASFVLNPTNIGMSKSSQGHVTKTTRLNNNTNSKLRRKSILHTIRNSIASGADLPIENDNVVNLGDLHPNNRISLGSGAARVVNGPVTKNRNSMFSGRAERKPTESRHSVAKKTEKKINTRPPFR
On to B1, for which the Kd is about 500 nM.
